± gives the uncertainty stated by the source.
Assay: protein stability index of a GFP-peptide fusion (yeast GPS) (PSI 1-4); higher = more stable; sorted into four equal gates, so the index is relative within each strain
Procedure, shortened: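 Sequencing reads from sorted gates were used to score each peptide. The library consisted of tiled 17-residue yeast protein peptides fused downstream of GFP on a Cherry-expressing plasmid, pooled and carried in yeast. Mid-log cultures in leucine-free medium were split into four equal gates by GFP/Cherry ratio, and each gate's plasmids were PCR-amplified and Illumina-sequenced. The protein stability index adds up, over all gates, the read frequency multiplied by the gate number.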

| Sequence | protein stability index (doa10∆) | protein stability index (pdr5∆) | protein stability index (san1∆) | protein stability index (ubr1∆) |
| --- | --- | --- | --- | --- |
| VLITSYEMVIREKNALK [ISW2] | 2.33 ± 0.043 | 2.53 ± 0.053 | 2.37 ± 0.045 | 2.78 ± 0.043 |
| SSYEEFLERFDFYTRHH [ITC1] | 3.19 ± 0.13 | 3.1 ± 0.083 | 3.03 ± 0.073 | 3.1 ± 0.081 |
| EMVKDRGYFITQEEVEL [RPB5] | 2.62 ± 0.071 | 2.08 ± 0.071 | 1.74 ± 0.066 | 2.1 ± 0.042 |
| INSGLYSVLLESPLSVA [YML103C/NUP188] | 1.47 ± 0.058 | 1.18 ± 0.066 | 1.15 ± 0.18 | 1.14 ± 0.053 |
| APRQEISEEETTVKPLF [YAR002W/NUP60] | 3.22 ± 0.11 | 3.22 ± 0.11 | 3.23 ± 0.067 | 3.56 ± 0.17 |
| QRHIAVGKQIVNIPSFM [RPS9A] | 2.48 ± 0.056 | 2.74 ± 0.067 | 2.89 ± 0.082 | 2.8 ± 0.065 |
| NTHLGARNVQVHQEPYV [RPS0A] | 2.06 ± 0.087 | 2.25 ± 0.053 | 2.59 ± 0.09 | 2.11 ± 0.058 |
| MSGLPPPPPGFEEDSDL [PRP8] | 3.19 ± 0.11 | 3.37 ± 0.083 | 3.13 ± 0.075 | 3.31 ± 0.078 |
| SLAQNDCNSALDQLLVL [RPN5] | 2.15 ± 0.048 | 2.35 ± 0.053 | 2.15 ± 0.053 | 2.37 ± 0.05 |
| STTEHINIDDLLYELTA [YJL039C/NUP192] | 2.82 ± 0.11 | 2.61 ± 0.092 | 2.43 ± 0.099 | 3.05 ± 0.053 |
| SVLYPDELEDDTLNETN [RRP43] | 3 ± 0.082 | 3.08 ± 0.071 | 3.19 ± 0.08 | 3.11 ± 0.062 |
| FLYVLIPAGIYWYWWKN [QCR8] | 1.93 ± 0.11 | 1.33 ± 0.13 | 1.62 ± 0.21 | 1.35 ± 0.27 |
| TVDLALFGSPPFILEYD [YMR129W/POM152] | 2.36 ± 0.044 | 2.49 ± 0.047 | 1.9 ± 0.087 | 2.7 ± 0.032 |
| DVLHPNRANVSKDELRE [RPS24A] | 3.35 ± 0.086 | 3.29 ± 0.11 | 3.19 ± 0.092 | 3.1 ± 0.086 |
| QRSNISTAIKSLVALGI [CDC53] | 1.86 ± 0.047 | 2.82 ± 0.054 | 2.82 ± 0.049 | 2.48 ± 0.037 |
| IIAELSFLKVDPDLGLD [YJL039C/NUP192] | 3.35 ± 0.091 | 3.26 ± 0.086 | 3.23 ± 0.1 | 3 ± 0.095 |
| PSQTLFSISYKPPTQKT [SRP21] | 2.23 ± 0.036 | 2.2 ± 0.039 | 1.97 ± 0.056 | 2.1 ± 0.032 |
| SFAIYSSTIDAPAFHTS [SRB8] | 2.21 ± 0.055 | 2.21 ± 0.056 | 2.03 ± 0.065 | 2.25 ± 0.045 |
| PEILRFKVYEPLLLVGL [RPS16A] | 2.01 ± 0.12 | 2.31 ± 0.098 | 2.1 ± 0.18 | 2.65 ± 0.068 |
| LDSMIELFKDYKPGSIT [MED1] | 2.15 ± 0.074 | 1.94 ± 0.047 | 1.82 ± 0.1 | 1.99 ± 0.052 |
| NKNGENKKIGKRPPEIM [SIR4] | 3.09 ± 0.12 | 3.21 ± 0.11 | 3.28 ± 0.14 | 3.28 ± 0.091 |
| ELMDRTGLKLYSRITLI [RPP1] | 1.57 ± 0.11 | 2.66 ± 0.1 | 1.69 ± 0.1 | 2.43 ± 0.12 |
| VASQSPHATATEKEPVP [SNF6] | 3.23 ± 0.11 | 3.06 ± 0.061 | 2.88 ± 0.15 | 3.35 ± 0.077 |
| SHERFFLSQGLHVVITL [CSN12] | 2.89 ± 0.099 | 2.94 ± 0.094 | 2.74 ± 0.18 | 2.87 ± 0.12 |
| VRYTTSVMPPNEVYSAY [DLS1] | 2.83 ± 0.062 | 3.12 ± 0.069 | 2.48 ± 0.059 | 2.9 ± 0.061 |
| VSPTVGKLFSDIKVLKR [YIL149C/MLP2] | 2.96 ± 0.08 | 3.29 ± 0.077 | 3.11 ± 0.06 | 3.17 ± 0.039 |

| Sequence | protein stability index (doa10∆) | protein stability index (pdr5∆) | protein stability index (san1∆) | protein stability index (ubr1∆) |
| --- | --- | --- | --- | --- |
| QPWQMDTNNEADLMALE [SNF12] | 2.59 ± 0.068 | 3.25 ± 0.076 | 2.86 ± 0.054 | 3.2 ± 0.036 |
| EQEQQQQQIIKIRITLT [RPS20] | 2.77 ± 0.057 | 2.86 ± 0.06 | 3.03 ± 0.043 | 3.09 ± 0.061 |
| GKGIKLSIAEERDRRRA [RPS4A] | 2.59 ± 0.12 | 2.87 ± 0.16 | 3.35 ± 0.072 | 3.23 ± 0.09 |
| GIVDELAYAVLGIALIA [RPN1] | 1.76 ± 0.1 | 1.42 ± 0.1 | 1.48 ± 0.16 | 1.17 ± 0.062 |
| SYDKTVKLWEEDPDQEE [YGL100W/SEH1] | 3.32 ± 0.12 | 3.21 ± 0.079 | 3.3 ± 0.044 | 3.29 ± 0.06 |
| VSIVKLDTQLITLLPSS [SNF12] | 1.73 ± 0.051 | 1.9 ± 0.05 | 1.95 ± 0.084 | 1.97 ± 0.051 |
| EVFEFKTFNKIQSQVFE [BRR2] | – | 3.29 ± 0.19 | – | 3.08 ± 0.22 |
| PKARQELPTQLALEIIV [RRP46] | 1.77 ± 0.046 | 1.76 ± 0.045 | 1.52 ± 0.11 | 2.07 ± 0.054 |
| ESVPIYSIDEFFLQRKL [BRR2] | 3.44 ± 0.13 | 3.21 ± 0.062 | 2.96 ± 0.12 | 3.33 ± 0.057 |
| TLLWNKNDKLIKIEDFV [SNF5] | 1.8 ± 0.081 | 1.74 ± 0.066 | 1.55 ± 0.095 | 1.83 ± 0.036 |
| FIYGEDGMDAAHIEKQS [RPO21] | 3.31 ± 0.069 | 3.29 ± 0.084 | 3.38 ± 0.054 | 3.36 ± 0.043 |
| GAALKDIEIVRVNKNAP [FAS2] | 3.09 ± 0.092 | 3.24 ± 0.12 | 3.21 ± 0.089 | 3.31 ± 0.084 |
| PWVVYLQILAMLLLNIF [YMR129W/POM152] | 1.19 ± 0.1 | 1.96 ± 0.072 | 1.18 ± 0.16 | 1.16 ± 0.08 |
| HTGKKLMAQIFFGPTYY [RPB2] | 2.64 ± 0.055 | 2.07 ± 0.043 | 1.97 ± 0.057 | 1.81 ± 0.029 |
| LVKTKELIKNYITARIM [FAS1] | – | 2.91 ± 0.19 | 3.02 ± 0.27 | 2.64 ± 0.073 |
| KEIKTNEYVIKTPVFTT [YMR129W/POM152] | 2.1 ± 0.072 | 1.98 ± 0.056 | 1.88 ± 0.084 | 1.94 ± 0.042 |
| NTNLMNGVNVQIDQLNR [GRR1] | 2.85 ± 0.052 | 3.06 ± 0.061 | 2.88 ± 0.049 | 2.99 ± 0.05 |
| SSKTSQPKPLFSFGKSD [YOR098C/NUP1] | 2.16 ± 0.043 | 2.4 ± 0.027 | 2.19 ± 0.047 | 2.16 ± 0.035 |
| YINVNPQEETITFLIEK [ECM29] | 3.23 ± 0.095 | 2.96 ± 0.089 | 2.91 ± 0.064 | 3.17 ± 0.06 |
| LGLAKSVHHARVLITQR [RPS9A] | 2.34 ± 0.12 | 2.86 ± 0.15 | 2.61 ± 0.17 | – |
| DSKKIKVDSPDDPFMTK [GAL11] | 2.55 ± 0.075 | 2.57 ± 0.074 | 2.5 ± 0.057 | 2.82 ± 0.04 |
| EKADYERELISNIEQTE [YIL149C/MLP2] | 3.34 ± 0.079 | 3.48 ± 0.087 | 3.27 ± 0.063 | 3.6 ± 0.098 |
| ESKSDDNSATSYYELET [RRI1] | 3.25 ± 0.084 | 3.24 ± 0.059 | 3.13 ± 0.067 | 3.19 ± 0.057 |
| SLAWSADGQTLFAGYTD [ASC1] | 2.66 ± 0.08 | 3.05 ± 0.091 | 2.7 ± 0.075 | 3.09 ± 0.1 |
| YDDFIYLSDLKQFFQMT [PCI8] | 2.5 ± 0.075 | 2.89 ± 0.073 | 2.61 ± 0.084 | 2.87 ± 0.051 |
| RSILQSLNPALQEKIST [SWI1] | 2.45 ± 0.056 | 2.79 ± 0.069 | 2.72 ± 0.1 | 2.71 ± 0.073 |
